The experiment deals with T1, CTNI quality control recombinant protein (PK2-CTNI-1, 170120, produced by the applicant) (human, UniProt P19429 2-210, limits assumed).
T1 construct: also called cardiac troponin I
The experiment in a line: AMC sensor kinetics, antibody captured, cTnI analyte. As to the method:
Using the AMC sensor, the purified antibody was diluted with PBST to 10 μg/ml, and the CTNI quality control recombinant protein (PK2-CTNI-1, 170120, produced by the applicant) was serially diluted with PBST to 400 nmol/ml, 200 nmol/ml, 100 nmol/ml, 50 nmol/ml, 25 nmol/ml, 12.5 nmol/ml, 6.25 nmol/ml, and 0 nmol/ml.

T1 sequence (P19429 2-210 limits assumed): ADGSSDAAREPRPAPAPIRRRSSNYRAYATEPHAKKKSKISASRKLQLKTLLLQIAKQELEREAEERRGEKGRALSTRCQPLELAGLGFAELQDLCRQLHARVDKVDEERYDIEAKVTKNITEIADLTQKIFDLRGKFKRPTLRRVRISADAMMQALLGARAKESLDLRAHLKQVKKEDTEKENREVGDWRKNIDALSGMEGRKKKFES

B1: Mutation 1-26 (antibody, V domains shown)
VH: EVQLQQSGAELVKPGASVKLSCTASGFNIKDYFMHWMKQRTEQGLDWIGRIDPEDGETKYAPEFQGKATITADTSSNTAYLQLSTLTSEDTAVYYCARYYSSYLPFVYWGQGTLVTASA
VL: DVVMTQTPLSLSVSLGDQASISCRSSQSILYSNRHTYLHWYLQKPGQSPKLLIFQLSNRFSGVPDRFSGSGSGTDFTLKINRVEAEDLGVYFCSQSTHLPFTFGSGTKLEIKR
notes: built as for Mutation 1
Take B1: the Kd stood at 0.692 nM, the koff was determined as 0.00023 s⁻¹ and the kon is 333000 M⁻¹ s⁻¹.

B2: Mutation 1-32 (antibody, V domains shown)
VH: EVQLQQSGAELVKPGASVKLSCTASGFNLKDYFMHWMKQRTEQGLDWIGRIDPEDGETRYAPEFQGKATITADTSSNTAYLQLSTLTSEDTAVYYCARYYSSYIPFVYWGQGTLVTASA
VL: DVVMTQTPLSLSVSLGDQASISCRSSQSILYSNRHTYLHWYLQKPGQSPKLLIFQISNRFSGVPDRFSGSGSGTDFTLKINRVEAEDLGVYFCSQSTHLPFTFGSGTKLEIKR
notes: built as for Mutation 1
As to B2, the Kd amounted to 0.509 nM, the koff worked out at 8.4e-05 s⁻¹ and the kon was 165000 M⁻¹ s⁻¹.

B3: Mutation 1-36 (antibody, V domains shown)
VH: EVQLQQSGAELVKPGASVKLSCTASGFNLKDYYMHWMKQRTEQGLDWIGRIDPEDGETRYAPEFQGKATITADTSSNTAYLQLSTLTSEDTAVYYCARYYSSYLPFVYWGQGTLVTASA
VL: DVVMTQTPLSLSVSLGDQASISCRSSQSIIYSNRHTYLHWYLQKPGQSPKLLIFQLSNRFSGVPDRFSGSGSGTDFTLKINRVEAEDLGVYFCSQSTHIPYTFGSGTKLEIKR
notes: built as for Mutation 1
Regarding B3, the Kd is 0.809 nM, the koff came to 0.000452 s⁻¹ and the kon came out at 559000 M⁻¹ s⁻¹.

B4: Mutation 1-39 (antibody, V domains shown)
VH: EVQLQQSGAELVKPGASVKLSCTASGFNLKDYFMHWMKQRTEQGLDWIGRIDPEDGETRYAPEFQGKATITADTSSNTAYLQLSTLTSEDTAVYYCARYYSSYVPFVYWGQGTLVTASA
VL: DVVMTQTPLSLSVSLGDQASISCRSSQSLIYSNRHTYLHWYLQKPGQSPKLLIFQVSNRFSGVPDRFSGSGSGTDFTLKINRVEAEDLGVYFCSQSTHLPYTFGSGTKLEIKR
notes: built as for Mutation 1
On to B4, for which the Kd came to 0.756 nM, the koff is 0.000469 s⁻¹ and the kon was 620000 M⁻¹ s⁻¹.

B5: Mutation 1-27 (antibody, V domains shown)
VH: EVQLQQSGAELVKPGASVKLSCTASGFNIKDYYMHWMKQRTEQGLDWIGRIDPEDAETRYAPEFQGKATITADTSSNTAYLQLSTLTSEDTAVYYCARYYSSYIPFVYWGQGTLVTASA
VL: DVVMTQTPLSLSVSLGDQASISCRSSQSLIYSNRHTYLHWYLQKPGQSPKLLIFQISNRFSGVPDRFSGSGSGTDFTLKINRVEAEDLGVYFCSQSTHIPYTFGSGTKLEIKR
notes: built as for Mutation 1
Regarding B5, the Kd was 0.85 nM, the koff came out at 0.000844 s⁻¹ and the kon turned out to be 993000 M⁻¹ s⁻¹.

B6: Mutation 1-30 (antibody, V domains shown)
VH: EVQLQQSGAELVKPGASVKLSCTASGFNIKDYFMHWMKQRTEQGLDWIGRIDPEDAETRYAPEFQGKATITADTSSNTAYLQLSTLTSEDTAVYYCARYYSSYLPFVYWGQGTLVTASA
VL: DVVMTQTPLSLSVSLGDQASISCRSSQSIIYSNRHTYLHWYLQKPGQSPKLLIFQLSNRFSGVPDRFSGSGSGTDFTLKINRVEAEDLGVYFCSQSTHIPFTFGSGTKLEIKR
notes: built as for Mutation 1
As to B6, the Kd is 0.669 nM, the koff was 0.000362 s⁻¹ and the kon came out at 541000 M⁻¹ s⁻¹.

B7: Mutation 1-33 (antibody, V domains shown)
VH: EVQLQQSGAELVKPGASVKLSCTASGFNLKDYYMHWMKQRTEQGLDWIGRIDPEDAETKYAPEFQGKATITADTSSNTAYLQLSTLTSEDTAVYYCARYYSSYVPFVYWGQGTLVTASA
VL: DVVMTQTPLSLSVSLGDQASISCRSSQSLIYSNRHTYLHWYLQKPGQSPKLLIFQVSNRFSGVPDRFSGSGSGTDFTLKINRVEAEDLGVYFCSQSTHIPFTFGSGTKLEIKR
notes: built as for Mutation 1
For B7, the Kd is 0.986 nM, the koff worked out at 0.000881 s⁻¹ and the kon amounted to 894000 M⁻¹ s⁻¹.

B8: Mutation 1-41 (antibody, V domains shown)
VH: EVQLQQSGAELVKPGASVKLSCTASGFNIKDYYMHWMKQRTEQGLDWIGRIDPEDGETRYAPEFQGKATITADTSSNTAYLQLSTLTSEDTAVYYCARYYSSYIPFVYWGQGTLVTASA
VL: DVVMTQTPLSLSVSLGDQASISCRSSQSILYSNRHTYLHWYLQKPGQSPKLLIFQISNRFSGVPDRFSGSGSGTDFTLKINRVEAEDLGVYFCSQSTHIPYTFGSGTKLEIKR
notes: built as for Mutation 1
Turning to B8, the equilibrium dissociation constant (Kd) is 0.723 nM, the koff was determined as 0.000393 s⁻¹ and the kon was found to be 544000 M⁻¹ s⁻¹.

B9: Mutation 1-29 (antibody, V domains shown)
VH: EVQLQQSGAELVKPGASVKLSCTASGFNLKDYYMHWMKQRTEQGLDWIGRIDPEDGETKYAPEFQGKATITADTSSNTAYLQLSTLTSEDTAVYYCARYYSSYVPFVYWGQGTLVTASA
VL: DVVMTQTPLSLSVSLGDQASISCRSSQSLLYSNRHTYLHWYLQKPGQSPKLLIFQVSNRFSGVPDRFSGSGSGTDFTLKINRVEAEDLGVYFCSQSTHLPYTFGSGTKLEIKR
notes: built as for Mutation 1
Turning to B9, the Kd worked out at 0.698 nM, the koff worked out at 0.000115 s⁻¹ and the kon amounted to 165000 M⁻¹ s⁻¹.

B10: Mutation 1-35 (antibody, V domains shown)
VH: EVQLQQSGAELVKPGASVKLSCTASGFNIKDYYMHWMKQRTEQGLDWIGRIDPEDAETRYAPEFQGKATITADTSSNTAYLQLSTLTSEDTAVYYCARYYSSYLPFVYWGQGTLVTASA
VL: DVVMTQTPLSLSVSLGDQASISCRSSQSIIYSNRHTYLHWYLQKPGQSPKLLIFQLSNRFSGVPDRFSGSGSGTDFTLKINRVEAEDLGVYFCSQSTHLPYTFGSGTKLEIKR
notes: built as for Mutation 1
Regarding B10, the Kd is 0.574 nM, the koff turned out to be 0.000276 s⁻¹ and the kon turned out to be 480000 M⁻¹ s⁻¹.

B11: Mutation 1-42 (antibody, V domains shown)
VH: EVQLQQSGAELVKPGASVKLSCTASGFNLKDYFMHWMKQRTEQGLDWIGRIDPEDGETKYAPEFQGKATITADTSSNTAYLQLSTLTSEDTAVYYCARYYSSYLPFVYWGQGTLVTASA
VL: DVVMTQTPLSLSVSLGDQASISCRSSQSLLYSNRHTYLHWYLQKPGQSPKLLIFQLSNRFSGVPDRFSGSGSGTDFTLKINRVEAEDLGVYFCSQSTHLPYTFGSGTKLEIKR
notes: built as for Mutation 1
With B11, the Kd worked out at 0.347 nM, the koff turned out to be 0.00018 s⁻¹ and the kon worked out at 520000 M⁻¹ s⁻¹.

B12: Mutation 1-40 (antibody, V domains shown)
VH: EVQLQQSGAELVKPGASVKLSCTASGFNLKDYYMHWMKQRTEQGLDWIGRIDPEDGETKYAPEFQGKATITADTSSNTAYLQLSTLTSEDTAVYYCARYYSSYIPFVYWGQGTLVTASA
VL: DVVMTQTPLSLSVSLGDQASISCRSSQSLLYSNRHTYLHWYLQKPGQSPKLLIFQISNRFSGVPDRFSGSGSGTDFTLKINRVEAEDLGVYFCSQSTHLPFTFGSGTKLEIKR
notes: built as for Mutation 1
As to B12, the Kd was 0.818 nM, the koff was found to be 0.000164 s⁻¹ and the kon was determined as 200000 M⁻¹ s⁻¹.

B13: Mutation 1-28 (antibody, V domains shown)
VH: EVQLQQSGAELVKPGASVKLSCTASGFNLKDYFMHWMKQRTEQGLDWIGRIDPEDAETKYAPEFQGKATITADTSSNTAYLQLSTLTSEDTAVYYCARYYSSYLPFVYWGQGTLVTASA
VL: DVVMTQTPLSLSVSLGDQASISCRSSQSLIYSNRHTYLHWYLQKPGQSPKLLIFQLSNRFSGVPDRFSGSGSGTDFTLKINRVEAEDLGVYFCSQSTHLPFTFGSGTKLEIKR
notes: built as for Mutation 1
For B13, the Kd is 0.189 nM, the koff stood at 0.000101 s⁻¹ and the kon worked out at 536000 M⁻¹ s⁻¹.

(Values after patent US20210340231A1 (FAPON BIOTECH, published 2021).)
